Patent US20220002732A1, “INHIBIN AS TARGETABLE REGULATORS OF ANGIOGENESIS” (UNIVERSITY OF SOUTH CAROLINA, priority 2016, published 2022)

Tests used:
[1] = system: TGF-β receptor serine threonine kinases (ALK1-7); assay: Panel of small molecule ALK inhibitors: inhibin-induced signaling and angiogenesis; assay type: cell-based; details: preliminary screen of ALK inhibitors
Source text: The inhibin-α activation of the SMAD1/5 pathway was also examined to determine which receptor type is required. TGF-β receptor serine threonine kinases (ALK1-7) are used by other TGF-β ligands. Testing was done to determine which Type I receptor is utilized by inhibin by using a panel of small molecule inhibitors as a preliminary screen for different ALKs. […] Similarly, three type II receptors are expressed in cells: TBRII, ACTRII and BMPRII.

HMvEC-1 cells = assay: Three-dimensional capillary sprouting and tube formation (number of meshes); assay type: cell-based, human
Procedure: FIG. 25 illustrates three-dimensional capillary sprouting and tube formation of HMvEC-1 cells in the presence of conditioned media (CM) from shControl SKOV3 cancer cells or CM from shINHA SKOV3 cancer cells (top), in the presence of CM from shControl SKOV3 cells in the presence of 10 μg/ml IgG or anti-inhibin-α (middle), and in the presence of CM from shControl treated with (+) or without (−) 300 pM recombinant Inhibin A alone and anti-inhibin-α antibody (10 μg/ml) (bottom). The bar graphs represent the average number of meshes quantified and represent duplicate trials. […] (Bar graphs show mean±SEM, ***P<0.001 and **P<0.01 (n=3), Student's t-test. Scale Bar=500 μm.)
Other TGF-β members have been reported to have effects on angiogenesis. FIG. 26 illustrates side-by-side comparison of angiogenesis results for HMvEC-1 cells treated as indicated with other TGF-β members (activin A, BMP9, TGFβ1) either alone or in the presence of inhibin-α. The robust effect of inhibin on angiogenesis can be seen. The bar graph represents quantitation of number of meshes.
FIG. 27 illustrates the capillary sprouting and tube formation of multiple endothelial cell types (HUVEC, HMvEC, MEEC) upon treatment with 300 pM inhibin-α for 16 hours and the broad effect of inhibin on angiogenesis in different cell types. The graphs represent the number of meshes, branches, and nodes quantified. (Bar graphs show mean±SEM, ***P<0.001 and **P<0.01 (n=3), Student's t-test. Scale Bar=500 μm.)
FIG. 32 illustrates three-dimensional capillary sprouting and tube formation of HMvEC-1 cells in the presence or absence of recombinant inhibin-α (300 pM) either untreated or pretreated with 100 μg/ml TRC105 for 30 minutes prior to inhibin-α treatment (left, scale bar=500 μm). Average number meshes/field was quantified 16 h after treatment and presented in the bar graph (middle). Minimum of 3 fields were counted and data represent duplicate trials. Western blotting for SMAD1/5 phosphorylation is shown (right) in response to 20 pM inhibin-α for up to 60 minutes.
FIG. 34 illustrates capillary sprouting and tube formation (left) in HMvEC-1 cells in response to inhibin-α in the absence and presence of 5 μM of TRC105 added 30 minutes prior to treatment with inhibin-α. The bar graph on the right represents the number of meshes quantified.

SMAD1/5 = assay: Western blot and staining for SMAD1/5 activation in endothelial cells (HMvEC-1, MEEC); assay type: cell-based, human, mouse
Procedure: (§1) Mouse Embryonic Endothelial Cells (MEEC) and Human Microvascular Endothelial Cells (HMvEC-1) were examined to determine the effect of inhibin-α on SMAD1/5 activation and on MAPK pathway activation, and specifically, on ERK1/2 activation. GAPDH or B-actin was used as control. Cells were incubated with 20 pM inhibin-α and examined over a time course of 60 minutes and also examined following 30-minute incubation over a dose course from 0 to 100 pM inhibin-α. Western blot results are shown of the HMvEC-1 (FIG. 17) and MEEC (FIG. 18). FIG. 19 presents the Western blot time course results following incubation of MEEC with inhibin-α for ERK1/2 activation. FIG. 20 presents image results from staining (Psmad1/5, DAP, and merged images) for HMvEC-1 cells (left) and MEEC cells (right) following incubation in inhibin-α or untreated (UT).
To determine if inhibin secreted by ovarian cancer cells activates the SMAD1/5 pathway in endothelial cells, conditioned media were obtained from stable cell lines that were generated from SKOV3 cells and OVCA420 cells with short hairpin RNA either as a control (with no effective sequence) (shControl), or directed at inhibin-α (shINHA), or stable unmodified SKOV3 cells. HMvEC-1 cells were then incubated in one of the conditioned media, as schematically illustrated in FIG. 22.

ERK1/2 = assay: Western blot for MAPK pathway ERK1/2 activation in endothelial cells (MEEC); assay type: cell-based, mouse; details: time course
Procedure: as §1

SMAD2/3 = assay: Western blot for SMAD2/3 activation in endothelial cells (HMvEC-1, MEEC); assay type: cell-based, human, mouse

Molecule: NC(=O)c1ccc(-c2nc(-c3ccc4c(c3)OCO4)c(-c3ccccn3)[nH]2)cc1 [SB431542]
- suppression of inhibin-induced signaling and angiogenesis [1]: not ALK3/6 or ALK5/4/7 (SB431542), suppressed

B1: TRCN105: humanized antibody to endoglin in clinical trials (antibody, chains of the INN, looked up, V domains shown)
VH: EVKLEESGGGLVQPGGSMKLSCAASGFTFSDAWMDWVRQSPEKGLEWVAEIRSKASNHATYYAESVKGRFTISRDDSKSSVYLQMNSLRAEDTGIYYCTRWRRFFDSWGQGTTLTVSS
VL: QIVLSQSPAILSASPGEKVTMTCRASSSVSYMHWYQQKPGSSPKPWIYATSNLASGVPVRFSGSGSGTSYSLTISRVEAEDAATYYCQQWSSNPLTFGAGTKLELK
- inhibin-α-induced angiogenesis on loss or block of endoglin or ALK1 (HMvEC-1 cells; endothelial cells with or without recombinant inhibin-α): inhibin does not induce angiogenesis

B2: recombinant Inhibin: recombinant Inhibin A, αβA heterodimer, used at 300 pM (protein, UniProt P05111 233-366; P08476 311-426, looked up)
Inhibin alpha chain: STPLMSWPWSPSALRLLQRPPEEPAAHANCHRVALNISFQELGWERWIVYPPSFIFHYCHGGCGLHIPPNLSLPVPGAPPTPAQPYSLLPGAQPCCAALPGTMRPLHVRTTSDGGYSFKYETVPNLLTQHCACI
Inhibin beta A chain: GLECDGKVNICCKKQFFVSFKDIGWNDWIIAPSGYHANYCEGECPSHIAGTSGSSLSFHSTVINHYRMRGHSPFANLKSCCVPTKLRPMSMLYYDDGQNIIKKDIQNMIVEECGCS
- endothelial cell angiogenesis induced by tumor cell-produced inhibin (number of meshes) (HMvEC-1 cells; HMvEC-1, CM from shControl SKOV3, antibody 10 μg/ml, recombinant Inhibin A 300 pM): can be recapitulated

B3: inhibin-α: α-subunit of inhibin, critical for the functionality of dimeric inhibin (both A and B) (protein, UniProt P05111 233-366, looked up)
Inhibin alpha chain: STPLMSWPWSPSALRLLQRPPEEPAAHANCHRVALNISFQELGWERWIVYPPSFIFHYCHGGCGLHIPPNLSLPVPGAPPTPAQPYSLLPGAQPCCAALPGTMRPLHVRTTSDGGYSFKYETVPNLLTQHCACI
- SMAD1/5 pathway activation by cancer cell conditioned media (SMAD1/5; HMvEC-1 cells in conditioned media of shControl or shINHA SKOV3/OVCA420 cells): activates the SMAD1/5 pathway in endothelial cells in a paracrine manner
- SMAD1/5 activation (SMAD1/5; endothelial cells, 20 pM over 60 minutes, 0 to 100 pM for 30 minutes): robust activator
- ERK1/2 activation (ERK1/2): robust activator
- SMAD2/3 activation (SMAD2/3): not equally an activator
- angiogenesis (number of meshes), side-by-side with other TGF-β members (HMvEC-1 cells; HMvEC-1, compared with activin A, BMP9, TGFβ1): robust effect
- capillary sprouting and tube formation in multiple endothelial cell types (HMvEC-1 cells; HUVEC, HMvEC, MEEC, 300 pM, 16 hours): broad effect
